From US20030199671A1, “Binding molecules for Fc-region polypeptides” (priority 2001, published 2003)
Like-named read-outs stand apart in the source and are kept apart here. Positions of bridges follow the written chain, without caps; N, C: chain ends. Residues, ends and D or L forms follow the SMILES beside them.

How the values were obtained:
Assay type in all cases: binding
[1] = target: IgG4 (Homo sapiens, UniProt P01861); design: all human subtypes derived from myeloma patients; purchased Calbiochem 400126; host or cells: myeloma patients; settings: for % IgG Capture - Batch Binding, Human IgG4: Table 9, immobilized peptide, 5.0 mg/ml resin load; for Human IgG4 elu pH 8.5 (% of Total Load): elution 0.1 M sodium bicarbonate buffer
In short: (§1)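 Read-out is A280 of unbound IgG (1.4 mg/ml extinction coefficient), with percent bound derived against non-filtered or negative controls. Targets were incubated with immobilized peptides in PBST or TBST for 1-1.5 h at room temperature. Hydrolyzed Sepharose and immobilized Protein A serve as negative and positive controls.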

[2] = target: T1, human IgG2 (Homo sapiens, UniProt P01859); settings: for Human IgG2 elu pH 8.5 (% of Total Load): elution 0.1 M sodium bicarbonate buffer; for Human IgG2 elu pH 4.0 (% of Total Load): elution 0.1 M sodium citrate buffer
T1 construct: all human subtypes derived from myeloma patients; purchased Calbiochem 400122; host or cells: myeloma patients
In short: as §1

[3] = tested on: human IgG
In short: (§2)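 Steps: dilute IgG in PBST or TBST; incubate with immobilized peptide 1-1.5 h, RT; collect unbound by centrifugation; measure A280; wash three times; elute with 0.1 M sodium bicarbonate pH 8.5 and/or 0.1 M sodium citrate pH 4.0 for 30-60 min and quantitate.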

[4] = target: T2, human IgG1 (Homo sapiens, UniProt P01857); settings: for % IgG Capture - Batch Binding, Human IgG1: Table 9, immobilized peptide, 5.0 mg/ml resin load; for Human IgG1 elu pH 8.5 (% of Total Load): elution 0.1 M sodium bicarbonate buffer; for Human IgG1 elu pH 4.0 (% of Total Load): elution 0.1 M sodium citrate buffer
T2 construct: all human subtypes derived from myeloma patients; purchased Calbiochem 400120; host or cells: myeloma patients
In short: (§3)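 Percent bound = control mass minus unbound mass, with unbound IgG read at A280 after 1–1.5 h room-temperature incubation with the peptide resin in PBST pH 7.2 or TBST pH 7.5. Bound IgG was eluted 30–60 min with 0.1 M citrate pH 4.0 and/or bicarbonate pH 8.5. Recovery is given as percent of total load.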

[5] = tested on: mouse IgG
In short: as §2

[6] = target: IgG3 (Homo sapiens, UniProt P01860); design: all human subtypes derived from myeloma patients; purchased Calbiochem 400124; host or cells: myeloma patients; settings: for % IgG Capture - Batch Binding, Human IgG3: Table 9, immobilized peptide, 5.0 mg/ml resin load; for Human IgG3 elu pH 4.0 (% of Total Load): elution 0.1 M sodium citrate buffer
In short: as §3

[7] = tested on: goat IgG; settings: Table 11; unfractionated IgG
In short: as §2

[8] = tested on: bovine IgG; settings: Table 11; unfractionated IgG
In short: as §2

[9] = Table 14, average ligand density 1.8 μM/ml

T1 sequence (P01859 1-326 isoform P01859-1): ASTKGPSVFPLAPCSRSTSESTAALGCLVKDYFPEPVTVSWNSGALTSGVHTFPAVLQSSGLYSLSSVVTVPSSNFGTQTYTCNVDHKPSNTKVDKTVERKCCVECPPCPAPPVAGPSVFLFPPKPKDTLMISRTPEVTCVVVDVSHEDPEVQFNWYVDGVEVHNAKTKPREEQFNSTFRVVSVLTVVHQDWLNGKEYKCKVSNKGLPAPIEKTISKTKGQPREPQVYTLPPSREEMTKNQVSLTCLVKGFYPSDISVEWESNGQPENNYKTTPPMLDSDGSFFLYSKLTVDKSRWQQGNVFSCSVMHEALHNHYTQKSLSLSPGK
T2 sequence (P01857 1-330 isoform P01857-1): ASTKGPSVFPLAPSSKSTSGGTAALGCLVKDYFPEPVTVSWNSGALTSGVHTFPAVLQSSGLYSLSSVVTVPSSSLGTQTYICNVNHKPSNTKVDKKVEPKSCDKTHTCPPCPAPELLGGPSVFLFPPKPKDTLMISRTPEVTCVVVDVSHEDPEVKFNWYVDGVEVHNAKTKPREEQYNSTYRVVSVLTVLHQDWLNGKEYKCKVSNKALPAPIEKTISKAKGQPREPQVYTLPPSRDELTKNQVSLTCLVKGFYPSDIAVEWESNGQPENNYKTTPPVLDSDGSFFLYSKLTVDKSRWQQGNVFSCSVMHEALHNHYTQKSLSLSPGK
Chain of IgG4 (P01861 1-327 isoform P01861-1): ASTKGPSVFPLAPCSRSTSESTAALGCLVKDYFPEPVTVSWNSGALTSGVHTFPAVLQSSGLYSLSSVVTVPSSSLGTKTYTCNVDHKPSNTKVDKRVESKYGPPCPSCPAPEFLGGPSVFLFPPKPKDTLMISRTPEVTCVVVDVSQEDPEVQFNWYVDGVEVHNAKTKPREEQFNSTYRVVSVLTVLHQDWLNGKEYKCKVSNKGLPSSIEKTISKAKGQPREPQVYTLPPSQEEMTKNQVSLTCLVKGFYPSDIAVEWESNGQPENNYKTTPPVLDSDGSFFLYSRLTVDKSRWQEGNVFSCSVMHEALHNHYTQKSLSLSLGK
Chain of IgG3 (P01860 1-377 isoform P01860-1): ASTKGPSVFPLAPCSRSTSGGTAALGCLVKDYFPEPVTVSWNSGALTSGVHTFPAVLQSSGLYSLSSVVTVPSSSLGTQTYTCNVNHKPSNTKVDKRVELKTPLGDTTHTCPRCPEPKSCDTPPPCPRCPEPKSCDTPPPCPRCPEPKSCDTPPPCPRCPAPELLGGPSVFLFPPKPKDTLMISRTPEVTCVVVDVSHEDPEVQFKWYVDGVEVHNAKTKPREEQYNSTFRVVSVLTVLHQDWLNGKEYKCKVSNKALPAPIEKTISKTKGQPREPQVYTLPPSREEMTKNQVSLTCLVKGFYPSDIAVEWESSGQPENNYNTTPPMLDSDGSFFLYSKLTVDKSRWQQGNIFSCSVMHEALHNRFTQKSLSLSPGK

Ac-GDRRACSRDWSGALVWCAGHEPGPEGGGK-NH2 (not fully specified (bridges); printed as Ac-GDRRACSRDWSGALVWCAGHEPGPEGGGK-NH2; cysteine pairing not given here) [DX253]
% IgG Capture - Batch Binding, Human IgG4 [1]: 33% | Human IgG4 elu pH 8.5 (% of Total Load) ([1]; Table 10): 22% | hIgG4 elution pH 2.5 (% of Total Load) ([1]; Table 13): 49% | hIgG4 elution pH 3.0 (% of Total Load) ([1]; Table 13): 49% | hIgG4 elution pH 3.5 (% of Total Load) ([1]; Table 13): 53% | hIgG4 elution pH 4.5 (% of Total Load) ([1]; Table 13): 23% | hIgG4 elution pH 5.5 (% of Total Load) ([1]; Table 13): 4% | hIgG4 elution pH 9.0 (% of Total Load) ([1]; Table 13): 45% | hIgG4 elution pH 9.5 (% of Total Load) ([1]; Table 13): 62% | Batch Binding (% Capture of Total Load) hIgG4 ([1]; peptide immobilized on NHS activated sepharose 4 fast flow, target ligand density 2.0 μmole/ml, batch filterplate, hIgG4): 58% | Human IgG2 elu pH 8.5 (% of Total Load) ([2]; Table 10): 32% | Human IgG2 elu pH 4.0 (% of Total Load) ([2]; Table 10): 12% | hIgG2 elution pH 2.5 (% of Total Load) ([2]; Table 13): 78% | hIgG2 elution pH 3.0 (% of Total Load) ([2]; Table 13): 69% | hIgG2 elution pH 3.5 (% of Total Load) ([2]; Table 13): 55% | hIgG2 elution pH 4.5 (% of Total Load) ([2]; Table 13): 31% | hIgG2 elution pH 9.0 (% of Total Load) ([2]; Table 13): 42% | hIgG2 elution pH 9.5 (% of Total Load) ([2]; Table 13): 47% | Batch Binding (% Capture of Total Load) hIgG2 ([2]; peptide immobilized on NHS activated sepharose 4 fast flow, target ligand density 2.0 μmole/ml, batch filterplate, hIgG2): 80% | % IgG Capture - Batch Binding, Human IgG ([3]; Table 11, unfractionated IgG): 54% | % IgG Capture - Batch Binding, Human IgG [3, 9]: 71% | Batch Binding (% Capture of Total Load) hIgG ([3]; peptide immobilized on NHS activated sepharose 4 fast flow, target ligand density 2.0 μmole/ml, batch filterplate, hIgG): 79% | % IgG Capture - Batch Binding, Human IgG1 [4]: 58% | Human IgG1 elu pH 8.5 (% of Total Load) ([4]; Table 10): 44% | Human IgG1 elu pH 4.0 (% of Total Load) ([4]; Table 10): 14% | hIgG1 elution pH 2.5 (% of Total Load) ([4]; Table 13): 78% | hIgG1 elution pH 3.0 (% of Total Load) ([4]; Table 13): 75% | hIgG1 elution pH 3.5 (% of Total Load) ([4]; Table 13): 54% | hIgG1 elution pH 4.5 (% of Total Load) ([4]; Table 13): 55% | hIgG1 elution pH 5.5 (% of Total Load) ([4]; Table 13): 8% | hIgG1 elution pH 9.0 (% of Total Load) ([4]; Table 13): 44% | hIgG1 elution pH 9.5 (% of Total Load) ([4]; Table 13): 45% | Batch Binding (% Capture of Total Load) hIgG1 ([4]; peptide immobilized on NHS activated sepharose 4 fast flow, target ligand density 2.0 μmole/ml, batch filterplate, hIgG1): 88% | % IgG Capture - Batch Binding, Mouse IgG ([5]; Table 11, unfractionated IgG): 2% | % IgG Capture - Batch Binding, Mouse IgG [5, 9]: 2% | % IgG Capture - Batch Binding, Human IgG3 [6]: 7% | Human IgG3 elu pH 4.0 (% of Total Load) ([6]; Table 10): 5%

CC(=O)NCC(=O)N[C@@H](CC(=O)O)C(=O)N[C@@H](CC(=O)O)C(=O)N[C@@H](CC(=O)O)C(=O)N[C@@H](Cc1c[nH]cn1)C(=O)N[C@H]1CSSC[C@@H](C(=O)N2CCC[C@H]2C(=O)N[C@@H](Cc2c[nH]cn2)C(=O)NCC(=O)N[C@@H](CCC(=O)O)C(=O)N2CCC[C@H]2C(=O)NCC(=O)N2CCC[C@H]2C(=O)N[C@@H](CCC(=O)O)C(=O)NCC(=O)NCC(=O)NCC(=O)N[C@@H](CCCCN)C(N)=O)NC(=O)[C@H](CCC(=O)O)NC(=O)[C@H](CO)NC(=O)[C@H](CC(N)=O)NC(=O)[C@H](Cc2ccccc2)NC(=O)[C@H](Cc2c[nH]c3ccccc23)NC(=O)[C@H](CCC(=O)O)NC(=O)[C@H](CCCNC(=N)N)NC(=O)[C@H](Cc2ccccc2)NC(=O)[C@H](Cc2c[nH]c3ccccc23)NC(=O)[C@H](Cc2ccc(O)cc2)NC1=O [DX252] (Ac-GDDDHCYWFREWFNSECPHGEPGPEGGGK-NH2; disulfide 6-17 (inferred))
% IgG Capture - Batch Binding, Human IgG4 [1]: 6% | Human IgG4 bdg % (% of Total Load) ([1]; Table 10, batch binding): 14% | Human IgG4 elu pH 8.5 (% of Total Load) ([1]; Table 10): 4% | % IgG Capture - Batch Binding, Human IgG2 ([2]; Table 9, immobilized peptide, 5.0 mg/ml resin load): 24% | Human IgG2 bdg % (% of Total Load) ([2]; Table 10, batch binding): 37% | Human IgG2 elu pH 8.5 (% of Total Load) ([2]; Table 10): 8% | Human IgG2 elu pH 4.0 (% of Total Load) ([2]; Table 10): 10% | % IgG Capture - Batch Binding, Goat IgG [7]: 0% | % IgG Capture - Batch Binding, Human IgG ([3]; Table 11, unfractionated IgG): 20% | % IgG Capture - Batch Binding, Human IgG1 [4]: 34% | Human IgG1 bdg % (% of Total Load) ([4]; Table 10, batch binding): 37% | Human IgG1 elu pH 8.5 (% of Total Load) ([4]; Table 10): 19% | Human IgG1 elu pH 4.0 (% of Total Load) ([4]; Table 10): 30% | % IgG Capture - Batch Binding, Mouse IgG ([5]; Table 11, unfractionated IgG): 1% | % IgG Capture - Batch Binding, Bovine IgG [8]: 0% | % IgG Capture - Batch Binding, Human IgG3 [6]: 35% | Human IgG3 bdg % (% of Total Load) ([6]; Table 10, batch binding): 44% | Human IgG3 elu pH 8.5 (% of Total Load) ([6]; Table 10, elution 0.1 M sodium bicarbonate buffer, pH 8.5): 8% | Human IgG3 elu pH 4.0 (% of Total Load) ([6]; Table 10): 5%
